In a protein production outcome set (Wang et al. 2014):

Test: label from the status in PepcDB records

Row | Sequence | protein production
1 | MLKKMSPSDWRPFYVSIARNMTNGIRGSIGGRLASWACLFQVTCGVAMKMPTLLSVSLLAALSLPAAAQTAPPQDVPFDGTLKIDVDATDLAHRIFKVNITMPAKPGPMTLLYPQWIPGDHSPTGPIDKLAGLVIKVDGKVVPWKRDQFDVYAFKVDVPQGATELTAEFKFLSPQAGNQGRVMMTPEMLNLQWNTTALYPAGYVVRNIKVQASVTLPAGWSYATALETDRRVGDTVSFKPIDFDDLVDSPMFAGKYYKRVELSTGKQPVYLNVFADEAKSLEAKPEQIKAHAALVQQMDKLYGARHFDHYEFLLALTKKLGGIGLEHHRSSENSGPPNYFTEWDKSWTMRDLLAHEFNHSWNGKYRRGADLSTPNFNVPMGDSLLWLYEGQTQFWGEVLAARSGLWTQDQARDMLAGVAATYERGRPGMTWRTLQDTTNDPTMSMRRSKPYRSYQMSEDYYSGAQMMWLEVDSKLRALTNNKRSIDDFAKAFFGMKNGDWDVNPYTFDDIVSTLNGVAAYDWASLLRERMDGHGSLNGGIEANGWKLVYNDEPNLAIKTYESNKNDVSLTYSLGLSLEGSGEVSEVLWDSPAFNAGIINGNSIVAVNGRAFSADVIKDAIKAAKGTAAPIELLVKRGDRYETVRIDYHGGLLYPHLERIAGKPDRLGELYKAR | failed
2 | MSLAKISKIEAQKRKGRYNIYLDGKYAFPVAESVLIQFRLMKGTELDEKQIAAIATADQQAKAYSRMLDYLSYQMRTESDIVKKLKEIDTPEEFVEPILKKLRGQQLIDDHAYAASYVRTMINTDLKGPGIIRQHLRQKGIGESDIDDALTQFTPEVQAELAKKLALKLFRRYRNQPERRREQKVQQGLTTKGFSSSVYEMIKDEVVPQPDLEEGHHHHHH | not failed
3 | MEALKIALLGGGTVGSAFYNLVLERAEELSAFGVVPRFLGVLVRDPRKPRAIPQELLRAEPFDLLEADLVVEAMGGVEAPLRLVLPALEAGIPLITANKALLAEAWESLRPFAEEGLIYHEASVMAGTPALSFLETLRGSELLELHGILNGTTLYILQEMEKGRTYAEALLEAQRLGYAEADPTLDVEGIDAAHKLTLLARLLVDPGFPFAEVEAQGIARLTPEVLQKAEARGERVRLVASLFGEGGRWRAAVAPRRLPQDHPLARARGNALWVRARPLGEAFVTGPGAGGGATASGLFADLLRFLSGAPGHLPAPRARPPLEEGSPWPGVE | failed
4 | MGTITGEFTEHSAEAIAAMLSYIVQTEYEKKQLAKDTLQKYEEVVFLSQFANAVATCTGLQELIEVIRAEIRQVISVDEIFLYLYDQSQDSLTPLLYKTEESLQNFKAIEKIVERVLKLNQVEVIDDIQNDQDYLNQPSKIRSLLCYSLTVQNSIIGVLGLAHYQVKHFDSSDLNLFSTLTGQVAAAIRTAQYYETIKNYSQTLEIRLEHHHHHH | failed
5 | MMHSTVQHGGNKSGKSNVWANTNLAKTVAAVDEFKFGFPSGGLTTVSNKWWGRAEKGGREDGGGENTENGHVAACDETQNSLVAIRKRIAEEGREAVELGLHQGFGSKRPGKRDQALLFQIFNSAMPKDWVTPDSS | failed
6 | MSYLDTATDLPNQTLFLEYLNIALSNARRHHAQVGVLLCQINNWSDLKRKRGDAVANAFLQEAGQKLKSNLRNGDIVSRWDKDEFIFLVSKVQDTSSLLGIAQRLMKPVLAPVTAGGRPFQPEITYGVALYPVDGEQVNDLIGHIRENLQQLLPQPTLEHHHHHH | failed
7 | MKIAVDAMGGDNAPQAIVEGVMLAKQDFPDIEFQLYGKEAEIKKYITDEKNITIIHTDEKIASDDEPVKAIRRKKTASMVLAAQAVKNGEADAIFSAGNTGALLAAGLFIVGRIKNVERPGLMSTLPVMGEPDKGFDMLDLGANADNKPEHLVQYAVLGSFYAEKVRNVQNPRVGLLNNGTEETKGSELTKKAFELLAADETINFVGNVEARELLNGVADVVVTDGFTGNAVLKSIEGTAMNMMSLLKTAILSEGVKGKMGALLLKNALHGMKDEMDYSKHGGAVLFGLKAPVIKTHGATGPDAVRYTIRQIHTMLETQVVPQLVEYYEGKAE | not failed
8 | MELWIGITFASAFLQNLRSTLQKHLKGMMGTTGATFVRFVFGMPFALAYLAFLHLGLGRPLPVPNMSFAGWATVGAMAQIAATFLLVHLFSFRNFAVGTAYSRTEPAQAALFALIFIGESITGGTLAAIAISVAGVMLISVARTQVTPASFLTSIFSRTAGIGLASGAFFGLSSVAYRSASLALAPSLPAPDAMMQAGFTLVVVIVMQTVSMFLWIIWREREELPRIAKVWKPSLAVGFVGATASFGWFTAMTLQQAAVVKALAQVEMLFAFASTVLFFKEKINRLELSGCMLIVVGVLSLLAFG | failed
9 | MKREEYLKNYLESYLRKKEVSLTEEEFNVILREFLRFAYNPEESGQEIADTADGSKTLIHKTYGEPYHSQTAGAIRESLYKFVRPSRILEKAKERKVIRILDVGFGLGYNLAVALKHLWEVNPKLRVEIISFEKELLKEFPILPEPYREIHEFLLERVPEYEGERLSLKVLLGDARKRIKEVENFKADAVFHDAFSPYKNPELWTLDFLSLIKERIDEKGYWVSYSSSLSVRKSLLTLGFKVGSSREIGRKRKGTVASLKAPVPPMEENEVRKLVLSPFAVPMRDEKLDKEPLEILIDYLLKVYKISR | not failed
10 | MSYTPMSDLGQQGLFDITRTLLQQPDLASLCEALSQLVKRSALADNAAIVLWQAQTQRASYYASREKDTPIKYEDETVLAHGPVRSILSRPDTLHCSYEEFCETWPQLAAGGLYPKFGHYCLMPLAAGGHIFGGCEFIRYDER | failed
11 | MSVADSYFDELFRNNDDPWAFKQRWYERRKRALTLAALPRERYRAIFEPGCANGELSADLAERCDMLVCCDTSTQAVELARQRLADVPHARVVQARLPHQWPAGQFDLIVFSELGYYLDAADLHRLIDCALAALSPDGQLLACHWRPDIEGCPLNAQAVHAILAERLSMHRLFSHHEQDFLLDLWSRDGTSVAELEHHHHHH | not failed
12 | RHQVESSPLFRALALRCNQTMVTLRSANMFHAYGFLAKVFEILAKHKISVDLITTSEISVSLTLDQTDTSGGAPQLPQAAREELEELCKVEVEHDLCLVALIGNKMSERKGYAKQVFGTLEDLNLRMICYGASPHNLCFLVNESVAKQAIQKLHTELFEQ | not failed
13 | MSQQFPDWQPQGLENNLLKLVPLAKADFDTLFEVASDPLIWEQHPTKDRYKKEVFQLFFDGALGGNTAFIIIDKATGRIIGSTRYYDYKPEQASIAIGYTFLNRDYWGGRYNRSAKKLLLDYAFHYVDTVYFHIGANNLRSQKAILNIGATKVGEVDFDYYGKKVLHYEYAITKADWLHTLKQQL | failed
14 | MGLGVACSSSQPPGSTTEANGPAVSSGPSLFLLHTTPADGLVLHDARTDESRTLAAGATAKPARAVSPSGRHLAFSYATADSSHLTLLDLTTQQAHRVHAAAGTSVAYSLAWHPNQERLAVGYYRPTDDGGRGPGGLQVVTPDGTTRDVGCSSVREVLHWLPDGSLAARTDDNLYVVDAGDCATQASLDIRRMHHLRYAPTGQQMAYIYRELEYDRDRGEYVPDSSFVLSGPDGTNPETLFGNERHARHHRWAPETNEVALDVRVEASGHRQVVVYDGSRPTFLVSPDQTTADQVHPRWSPSGNRIAFTLRSDASSQAAVRVKGQTRRLGRVDGAVWGWLDDRSVVVPGPDSVRVKALNGTTRYAHPTPQTLLHVWRRSAS | failed
15 | MDNASEQRNYTTFWVGLASLTLEVVFIMAKSRVKKRPDGRYAMQIYLGTVDGKRKYKTVYGGTPKEVQKKADEVRILMGKGIDISAQRDTFKEWGNHWLKIKKAIVSSAHYKTCEQKLRIINCYIGDMPISQIKTANVQNIIFDLSSLNRWTGKPTAKRTLVEYRSVCRQVFQLAIENRIIDYNPASSVKIVSNQLKKERRALSVEEQGWIINTPHRAQKAAMIMMFAGLRRGEVIPLTWNDIDFEAGTIRVNKSVFKEGTRFNIKSGAKTESGNRVVNIPQILIDFLKLQPKDTILVCPDTKDVMMTETSWRRMWDSYIKDLNIKYGDLNGKRSKYDPKGVPITIPRITPHWLRHTFCTLLYLSGTDVLTAKEQMGHSDIKTTLGIYTHLDKEHKRNAVSKLNEYIETHASHMQVKNS | failed
16 | MAEICLITGTPGSGKTLKMVSMMANDEMFKPDENGIRRKVFTNIKGLKIPHTYIETDAKKLPKSTDEQLSAHDMYEWIKKPENIGSIVIVDEAQDVWPARSAGSKIPENVQWLNTHRHQGIDIFVLTQGPKLLDQNLRTLVRKHYHIASNKMGMRTLLEWKICADDPVKMASSAFSSIYTLDKKVYDLYESAEVHT | not failed
17 | SDLVITQELARAESQQDAASLKKAYELIKSANLGKSEFDPSESFSPDLFVLCAEQALKMRQPEVSEDCIQMYFKVKAPITQFLGRAHLCRAQMCAPKSAENLEEFENCVTEYMKAINFAKGEPRYYFLVYNASVLYWQMVRPFLKPGYRHHLIPSLSQIINVLSQTEEEDKEWRAELMLELLECYLQAGRKEEAARFCSTAAPFIKSHVPQKYRQIFSVMVNQRIRNRDVRSNFLKSHCSENCVEIT | not failed
18 | MANKENTSDEGLRVSYDVKTYHEQKYIDYTLRLREILKTLPSFAKDYFRAIEPTTSANTRISYAYDIRVFFRFLMENNPVYKNYTIDQFTLADIENLEPVDIEEYQEYLKVYKNDEKQVTNTEKGLARKMSALRSFYGYYFKRQAISKNPTLLVDMPKLHEKAIIRLDADEVVRLLDYVDHGGDHLTGQKKAYFEKTRNRDLAILTLLLGTGIRVSECVGLDINDVDFENNGIKVMRKGGNEMIVYFGEEVENALKTYMYTTRRTTLPLPGHENALFLSTQRKRMGVQAIENMVKKYAREVTPNKKITPHKLRSTYGTSLYKETGDIYLVADVLGHKDVNTTKKHYAAIDEDRRRQAANIVKLREV | failed
19 | SFRHTLSVDPSEQLSQDFADPVTDSGYESDEEAAAAATASLSGEEAALWNLVDPQQRLIFVLDGPAAQTLRVKRTGNLERQVVNIHRLPLERAPTVATSLLAATRPQHLVVALRTIEPHQAAAILTSTSYPSLSNVENASQVLVLANDLVQIDDPLLRPLWSDEGTQQNRIQLRWVETGCIGGITAALLAAGCWLRIPVLALLAVEDDDGPSPATLEALLLAAERFGCFTRADWEIRMPNLRQLLAKRQLLYI | not failed
20 | MSEKFDCHYCRDPLQGKKYVQKDGRHCCLKCFDKFCANTCVDCRKPISADAKEVHYKNRYWHDNCFRCAKCLHPLASETFVSKDGKILCNKCATREDSPRCKGCFKAIVAGDQNVEYKGTVWHKDCFTCSNCKQVIGTGSFFPKGEDFYCVTCHETKFAKHCVKCNKAITSGGITYQDQPWHAECFVCVTCSKKLAGQRFTAVEDQYYCVDCYKNFVAKKCAGCKNPITGKRTVSRVSHPVSKARKSPVCHGKRLPLTLFPSANLRGRHPGGERTCPSWVVVLYRKNRSLAAPRGPGLVKAPVWWPMKDNPGTTTASTAKNAP | failed
21 | MYCWNPELYAFSSSAQKSWGIELLTKFPLKGNERVLDVGCGDGKLSAEIAKRLPEGSVLGIDLSEAMVCFAKNHYPKEQFPNLSFMLMDAGNVPFESEFDVIFSNAALHWIKEPKAIETVLKGFLKSLRPEGKLLAQFGGRGNAAEVLLVLNSMLEDEKWSPYFGNFVFPYGFYGPEEYGKWLKNAGFSVRRAELYSKDMTLKGKEGLSGWFASTWHPFTQRVPENLKEEFIDELAVNFIKLHPLDNEGYVHIRMVRLEIEADIEK | failed
22 | MSSNVPADMINLRLILVSGKTKEFLFSPNDSASDIAKHVYDNWPMDWEEEQVSSPNILRLIYQGRFLHGNVTLGALKLPFGKTTVMHLVARETLPEPNSQGQRNR | failed
23 | MSRRSNRTINLPAPYLKRIWLDPSQVHDREAYPFCLPIFPDDFELSFDAAITIIVGENGTGKSTILEGIAALAGYDDAGGGKGYMPVDHSDAREKMGGQLSKALRASWLPKITNGWFFRAESFFSVARYLDKAARDAGQVGPDFLSHSHGEGFLRFFEERCQRQGIFIFDEPESALSPARQIEFLKLLRRMDDSRICQVIMATHSPMLMAYPNAKLLRLGKYGLEPVTVEETDHYRLMREFCDDPRGFVEATLAELEHHHHHH | not failed
